Data published in patent US20220177604A1 (ARGENX, published 2022).

B1: CL-2C mAb 37 (antibody, V domains shown)
VH: QVQLVQSGAEVMKPGSSVKVSCKASGYTFSWYHLEWVRQAPGHGLEWMGEIDPGTFTTNYNEKFKARVTFTADTSTSTAYMELSSLRSEDTAVYYCARFSHFSGSNHDYFDYWGQGTLVTVSS
VL: EIVMTQSPATLSVSPGERATLSCRASQSIGTNIHWYQQKPGQAPRLLIYYASESISGIPARFSGSGSGTEFTLTISSLQSEDFAVYYCQQSWSWPTTFGGGTKVEIK
notes: also called VKWT + VH33H100CH
B2: 3D1 human IgG1 mAb (antibody, V domains shown)
VH: QLQVVESGGGLVQPGGSLRLSCAASGFTFSSYYMSWVRQAPGKGLEWVSSIYSDGRGSKTFYADSVKGRFTISRDNAKNTLYLQMNSLKSEDTAVYFCAKDLLVAARGSMDYWGQGTQVTVSS
VL: NFMLTQPSAVSVSLEQTARITCQGGTLGSYGAHWYQQKPGQAPVLLIYGDNSRPSGIPERFSGTRSGGTATLTISGAQAEDEADYYCQSFDYSGNAVFGGGTHLTVL
notes: human IgG1 and human light chain constant domains; also called clone 3D1; WT 3D1

Tests used:
[1] = biological target: T1, recombinant Motavizumab human IgE (rMota-hIgE) (human, UniProt P01854 1-428); test: hIgE binding ELISA
T1 construct: also called Recombinant IgE (argenx)
Protocol: The ratio of OD450 measured at pH 7.4 versus OD450 measured at pH 6 was calculated for each of the CL-2C antibodies.

[2] = biological target: T1, recombinant Motavizumab human IgE …; test: hIgE binding ELISA; remark: listed apart in the source
Protocol: (§1) Briefly a Maxisorp plate was coated with recombinant human respiratory syncytial virus protein F (RSV-F) (0.5 μg/mL), then blocked with PBS with 3% BSA and 0.05% Tween. […] After several washing steps at pH 7.4 or pH 5.5, detection of the bound mAbs was carried out with an anti-human Fc-HRP antibody.

[3] = biological target: T2, human immunoglobulin E (hIgE) (human, UniProt P01854-1 1-428); test: SPR (Biacore) on hIgE
T2 construct: also called human IgE; Native IgE (Abcam)
Protocol: The ratio of KD measured at pH 5.5 versus KD measured at pH 7.4 was calculated for each of the CL-2C antibodies.

[4] = biological target: T1, recombinant Motavizumab human IgE …; test: hIgE binding ELISA, pH 5.5
Protocol: as §1

[5] = biological target: T1, recombinant Motavizumab human IgE …; test: hIgE binding ELISA, pH 7.4
Protocol: as §1

[6] = biological target: T2, human immunoglobulin E (hIgE); test: competition ELISA, hIgE to hFcεRIα
[7] = biological target: T2, human immunoglobulin E (hIgE); test: SPR competition
[8] = biological target: T2, human immunoglobulin E (hIgE); test: SPR competition; remark: listed apart in the source
Protocol: (§2) For this purpose, a competition approach was set-up. […] The assay was performed in HBS-EP pH7.4 or HBS-EP pH 5.5. Raw data were analyzed via BIA evaluation software with a blank subtraction (2-1). […] The IC50 values of each compound were calculated with a non-linear regression (log(agonist) vs. response Variable slope (four parameters)).

[9] = biological target: T2, human immunoglobulin E (hIgE); test: competition ELISA
Protocol: (§3) The IC50 values of each compound were calculated with a non-linear regression (log(agonist) vs. response Variable slope (four parameters)).

[10] = biological target: T2, human immunoglobulin E (hIgE); test: SPR competition, hIgE over hFcεRIα chip, pH 5.5
Protocol: (§4) The assay was performed in HBS-EP pH7.4 or HBS-EP pH 5.5. Raw data were analyzed via BIA evaluation software with a blank subtraction (2-1). […] The IC50 values of each compound were calculated with a non-linear regression (log(agonist) vs. response Variable slope (four parameters)).
(§5) Raw data were analyzed via BIA evaluation software with a blank subtraction (2-1). […] The IC50 values of each compound, calculated with a non-linear regression (log(agonist) vs. response Variable slope (four parameters)).

[11] = biological target: T2, human immunoglobulin E (hIgE); test: SPR competition, hIgE over hFcεRIα chip, pH 7.4
Protocol: as §4, §5

[12] = biological target: T2, human immunoglobulin E (hIgE); test: SPR competition, hIgE + mAb over hFcεRIα chip, pH 7.4
Protocol: as §2

[13] = biological target: T2, human immunoglobulin E (hIgE); test: competition ELISA, biotin-hIgE to coated hFcεRIα, pH 6
Protocol: as §3

[14] = biological target: T2, human immunoglobulin E (hIgE); test: competition ELISA, biotin-hIgE to coated hFcεRIα, pH 7.4
Protocol: as §3

[15] = biological target: T2, human immunoglobulin E (hIgE); test: SPR competition, hIgE + mAb over hFcεRIα chip, pH 6 (text: pH 5.5)
Protocol: as §2

T1 sequence (P01854 other isoform, or with tags, fused parts or gaps limits assumed, form in doubt): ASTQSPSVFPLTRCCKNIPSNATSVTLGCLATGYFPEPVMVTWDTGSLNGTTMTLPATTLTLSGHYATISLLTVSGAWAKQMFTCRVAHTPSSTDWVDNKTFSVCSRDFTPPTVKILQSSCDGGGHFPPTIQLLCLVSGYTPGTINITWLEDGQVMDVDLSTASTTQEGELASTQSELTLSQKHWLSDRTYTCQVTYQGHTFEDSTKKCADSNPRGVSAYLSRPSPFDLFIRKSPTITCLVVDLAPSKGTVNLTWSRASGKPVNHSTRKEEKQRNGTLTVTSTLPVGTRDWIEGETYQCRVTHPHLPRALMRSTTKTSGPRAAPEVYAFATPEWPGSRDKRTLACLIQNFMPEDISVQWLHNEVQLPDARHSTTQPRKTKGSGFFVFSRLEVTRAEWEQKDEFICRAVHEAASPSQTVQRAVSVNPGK
T2 sequence (P01854 whole entry): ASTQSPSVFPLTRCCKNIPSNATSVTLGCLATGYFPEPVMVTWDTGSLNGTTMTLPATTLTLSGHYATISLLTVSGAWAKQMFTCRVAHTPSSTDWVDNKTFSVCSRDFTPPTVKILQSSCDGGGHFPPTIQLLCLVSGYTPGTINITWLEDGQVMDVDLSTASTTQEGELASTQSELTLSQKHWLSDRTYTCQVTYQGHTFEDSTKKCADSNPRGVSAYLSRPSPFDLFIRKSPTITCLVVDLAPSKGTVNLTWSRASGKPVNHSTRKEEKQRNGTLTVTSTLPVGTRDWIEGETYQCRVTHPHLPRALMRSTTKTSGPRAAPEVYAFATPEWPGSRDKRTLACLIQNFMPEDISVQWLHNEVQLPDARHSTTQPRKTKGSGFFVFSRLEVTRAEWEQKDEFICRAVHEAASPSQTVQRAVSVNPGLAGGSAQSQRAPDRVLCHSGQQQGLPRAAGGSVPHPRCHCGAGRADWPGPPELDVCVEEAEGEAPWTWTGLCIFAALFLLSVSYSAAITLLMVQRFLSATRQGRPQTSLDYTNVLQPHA

Binder	Ratio OD450 pH 7.4/pH 6 [1]	Ratio EC50 pH 5.5/7.4 [2]	Ratio EC50 pH 7.4/5.5 [2]	KD Ratio pH 5.5/pH 7.4 [3]	EC50 [4]	EC50 [5]	IC50 [6]	ratio between IC50 at pH5.5 and pH 7.4 [7]	Ratio pH 6/7.4 (IC50) [8]	Ratio pH 6/7.4 (IC50) [9]	IC50 [10]	IC50 [11]	IC50 [12]	IC50 [13]	IC50 [14]	IC50 [15]
B1	10.3	2.5	0.4	11.1	0.0373 µg/mL	0.0149 µg/mL	0.483 nM	–	–	–	–	–	–	–	–	–
B2	–	–	–	–	–	–	–	8.6	0.8	1.3	11.7 µg/mL	1.36 µg/mL	5.31 nM	118 nM	90.3 nM	4.44 nM
